Assay [1] addresses T1, recombinant human IL13Ra2 (ACROBiosystems; CAT #: IL2-H52H5) (human, UniProt Q14627 27-343).
T1 construct: Bought protein, coated on the ELISA plate; also called Interleukin-13 Receptor Subunit Alpha 2; immobilized recombinant IL13Ra2
T1 sequence (looked up): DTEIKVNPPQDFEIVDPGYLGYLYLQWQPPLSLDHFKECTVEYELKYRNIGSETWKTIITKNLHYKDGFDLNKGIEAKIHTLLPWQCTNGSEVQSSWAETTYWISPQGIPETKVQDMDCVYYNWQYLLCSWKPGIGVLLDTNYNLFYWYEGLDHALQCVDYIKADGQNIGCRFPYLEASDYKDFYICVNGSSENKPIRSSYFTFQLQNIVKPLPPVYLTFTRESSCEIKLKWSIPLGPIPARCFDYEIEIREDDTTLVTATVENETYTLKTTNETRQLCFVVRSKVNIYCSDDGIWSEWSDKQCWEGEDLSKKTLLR
Description: ELISA, antigen coated on plate, anti-human IgG Fc-HRP detection. From the text: FIGS. 1A-1E show the binding of purified chimeric anti-IL13Ra2 mAbs (VH and VL regions of mouse mAb fused to the constant regions of human IgG1 heavy chain and kappa light chain, respectively) to immobilized recombinant IL13Ra2 in an ELISA assay. The antigen was human IL13Ra2 (ACROBiosystems; Newark, DE; CAT #: IL2-H52H5). L3A6-C refers to the chimeric version of L3A6, other antibodies following the same naming rule; Isotype control (IgG1) was included as a negative control antibody.
Purified chimeric mAbs were tested in an ELISA assay for their ability to bind to immobilized IL13Ra2. Recombinant human IL13Ra2 in Carbonate-Bicarbonate Buffer (Sigma; St. Louis, MO; Cat #: C3041-100CAP) was coated on a 96-well plate at room temperature for 1 hour. The plate is blocked by 5% BSA in TBST for 1 hour at room temperature. In each well of an individual plate, mAbs at various concentrations were incubated for 1 hour at room temperature. The plate was washed and the binding to IL13Ra2 was detected by a mouse anti-human IgG Fc antibody conjugated to horseradish peroxidase (Genescript; Piscataway, NJ; Cat #: A01854) with incubation for 1 hour at room temperature. Then after washing, the ELISA was developed using One-step Detection Solution (ThermoFisher Scientific; Waltham, MA; Cat #: 34028) and measured as the absorbance at 450 nm. […]

In assay [2] the target is T1, recombinant human IL13Ra2 …. Description: ELISA, antigen coated on plate. In general terms: In an ELISA, binding on a coated surface is turned into a signal by an enzyme label.

The results in this text go back to patent US20250136703A1 (PHANES THERAPEUTICS, published 2025).

B1: L3A6-C (chimeric version of L3A6) (antibody, V domains shown)
VH: QVQLQQPGAELVKPGAPVKLSCKASGYTFTNYWMNWVKQRPGRGLEWIGRIDPSDTETHYNQEVKDKATLTVDKSSSTAYIQLSSLTSEDSAVYYCARGYGTYYGMDYWGQGTSVTVSS
VL: not shown
notes: Mouse VH and VL fused to the constant regions of human IgG1 heavy chain and kappa light chain
With B1, the binding result in assay [1] is “binds”.

B2: L3A6-H1L1 (humanized mAb constructed with L3A6-H1 heavy chain and L3A6-L1 light chain) (antibody, V domains shown)
VH: QVTLRESGPALVKPTQTLTLTCTASGYTFTNYWMNWVRQPPGKALEWIGRIDPSDTETHYNQEVKDRATLSVDKSKNQAVLTMTNMDPVDTATYYCARGYGTYYGMDYWGQGSLVTVSS
VL: DIVLTQSPDSLSVSLGERATINCRASESVDNYGISFMNWFQQKPGQPPKLLIYAASNQGSGVPDRFSGSGSGTDFTLTISSLQAEDVAVYFCQQSKEVPWTFGGGTKVEIK
notes: Humanized VH and VL fused to the constant regions of human IgG1 heavy chain and kappa light chain
In the case of B2, the binding result in assay [2] was “binds”.
